From patent publication US20250388623A1, “PEPTIDE INHIBITOR AND USE THEREOF” (CHENGDU BRILLIANT INSPIRATION BIOTHERAPEUTICS CO., LTD, priority 2022, published 2025)

Molecular target: T1, binding of TSP-1 protein to CD36, a TSP-1 receptor protein (Homo sapiens, UniProt P07996)
T1 construct: purchased novoprotein (TSP-1); R&D Systems (Fc-tagged CD36) CU45 (TSP-1); 1955-CD-050 (CD36-Fc)
Test: ELISA: blocking of CD36 binding to TSP-1 protein
Settings: 100 μM polypeptide, 0.25 μg/mL Fc-tagged CD36, blocking of CD36 binding to TSP-1; for inhibition at 100 µM: 3 h, read-out: Blocking rate (Mean, %)
Protocol: ELISA assay was performed to detect the ability of the polypeptides to block the binding of TSP-1 protein to CD36, a TSP-1 receptor protein. TSP-1 protein (novoprotein, Catalog No. CU45) was diluted to 2 μg/mL using 100 mM carbonate buffer and added to sample wells (100 μL/well) of a 96-well ELISA plate (Thermo, Catalog No. 437111), and incubated overnight at 4° C.; after washing the plate twice using 1×PBST wash solution, 200 μL of 1.5% BSA (Sigma, Catalog No. B2064) was added to each well, and incubated at 37° C. for 2 h; after washing the plate 3 times using 1×PBST wash solution, the analytes were added (100 μL/well, 3 replicate wells; for the control group, 0.25 μg/mL of Fc-tagged CD36 protein (R&D Systems, Catalog No. 1955-CD-050); and for the polypeptide-treated groups, a mixture containing Fc-tagged CD36 protein and polypeptide at final concentrations of 0.25 μg/mL and 100 μM, respectively), and incubated at 37° C. for 3 h. After washing the plate 5 times using 1×PBST wash solution, a 1:500 dilution solution of FITC-labeled anti-Fc-tagged antibody (Beyotime, Catalog No. A0556) was added, and incubated for 1 h at 37° C.; after washing the plate 5 times using 1×PBST wash solution, a multifunctional ELISA instrument (TECAN, model: Infinite 200 Pro) was used to detect the intensity of FITC fluorescence signal in each sample well. The ability of the polypeptides to block CD36 binding to TSP-1 protein (Table 2-1) was assessed by calculating the ratio of the fluorescence signal from the polypeptide-treated groups to that of the control group, allowing for the determination of the blocking rate of the polypeptides in inhibiting CD36 binding to TSP-1 protein, i.e., (fluorescence signal of the control group-fluorescence signal of the polypeptide-treated group)/fluorescence signal of the control group×100%. Based on the blocking rate results obtained at the single concentration and on the polypeptide molecule properties, the preferred polypeptide molecules were assayed for concentration dependence (at 0 μM, 0.5 μM, 1 μM, 5 μM, 10 μM, and 100 μM), and IC50 values of the polypeptides for blocking CD36 binding to TSP-1 protein were determined to further assess the abilities of the preferred polypeptide molecules to block the binding of CD36 to TSP-1 (Table 2-2).

T1 sequence (P07996 19-1170): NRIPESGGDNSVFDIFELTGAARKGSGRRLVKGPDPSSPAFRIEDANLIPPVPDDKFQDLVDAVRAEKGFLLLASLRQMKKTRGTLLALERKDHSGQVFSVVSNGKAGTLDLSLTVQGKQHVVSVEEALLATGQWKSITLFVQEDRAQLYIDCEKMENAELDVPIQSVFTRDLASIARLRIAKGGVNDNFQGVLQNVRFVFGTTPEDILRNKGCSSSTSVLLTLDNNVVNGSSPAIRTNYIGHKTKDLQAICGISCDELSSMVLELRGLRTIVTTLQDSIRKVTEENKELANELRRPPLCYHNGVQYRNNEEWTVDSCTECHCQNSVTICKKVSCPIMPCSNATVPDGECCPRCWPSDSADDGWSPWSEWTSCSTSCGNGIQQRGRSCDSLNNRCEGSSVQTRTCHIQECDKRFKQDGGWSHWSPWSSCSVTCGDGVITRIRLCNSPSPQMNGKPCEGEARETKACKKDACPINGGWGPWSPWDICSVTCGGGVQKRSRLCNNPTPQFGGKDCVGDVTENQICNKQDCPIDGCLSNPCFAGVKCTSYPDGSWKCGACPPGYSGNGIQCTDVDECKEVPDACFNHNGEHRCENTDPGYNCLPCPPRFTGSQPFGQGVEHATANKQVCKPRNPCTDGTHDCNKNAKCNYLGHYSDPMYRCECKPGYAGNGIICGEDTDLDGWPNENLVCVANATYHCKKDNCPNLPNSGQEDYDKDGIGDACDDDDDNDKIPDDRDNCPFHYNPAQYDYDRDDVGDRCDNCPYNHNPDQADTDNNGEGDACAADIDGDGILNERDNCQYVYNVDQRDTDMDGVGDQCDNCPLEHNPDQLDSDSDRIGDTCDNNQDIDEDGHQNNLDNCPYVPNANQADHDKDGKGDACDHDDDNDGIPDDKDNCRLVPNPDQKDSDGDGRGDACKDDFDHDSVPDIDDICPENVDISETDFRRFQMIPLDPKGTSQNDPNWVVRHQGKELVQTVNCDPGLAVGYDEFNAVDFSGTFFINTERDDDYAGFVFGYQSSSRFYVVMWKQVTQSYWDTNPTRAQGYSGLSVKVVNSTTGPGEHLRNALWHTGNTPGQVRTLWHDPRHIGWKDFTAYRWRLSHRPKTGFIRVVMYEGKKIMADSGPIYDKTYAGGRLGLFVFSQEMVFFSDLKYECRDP

Substance | Blocking rate (Mean, %) | inhibition at 100 µM
Ac-Thr-Glu-Asp-Ala-Glu-Asp-Asn-Thr-Val-Ser-Phe-NH2 (Ac-TEDAEDNTVSF-NH2) [SEQ ID NO: 29] | 25.05% | –
Ac-Thr-Gln-Asp-Pro-Glu-Asp-Asn-Thr-Val-NH2 (Ac-TQDPEDNTV-NH2) [SEQ ID NO: 20] | 26.03% | –
Ac-Ser-Gln-Asp-Ala-Glu-Asp-Asn-Thr-Val-Ser-Phe-Leu-Gln-NH2 (Ac-SQDAEDNTVSFLQ-NH2) [SEQ ID NO: 37] | 22.41% | –
Ac-Thr-Gln-Asp-Ala-Glu-Asp-Asn-Thr-Ala-Ser-Trp-NH2 (Ac-TQDAEDNTASW-NH2) [SEQ ID NO: 34] | 20.44% | –
Ac-Thr-Gln-Asp-Ser-Glu-Asp-Asn-NH2 (Ac-TQDSEDN-NH2) [SEQ ID NO: 11] | 15.19% | –
Ac-Thr-Asn-Asp-Ala-Glu-Asp-Asn-Thr-Val-NH2 (Ac-TNDAEDNTV-NH2) [SEQ ID NO: 19] | 16.86% | –
Ac-Thr-Gln-Asp-Pro-Glu-Asp-Asn-Thr-Val-Ser-Phe-Leu-Gln-NH2 (Ac-TQDPEDNTVSFLQ-NH2) [SEQ ID NO: 39] | 22.29% | –
Ac-Thr-Gln-Asp-Ala-Glu-Asp-Asn-Thr-Ala-Ser-His-Leu-NH2 (Ac-TQDAEDNTASHL-NH2) [SEQ ID NO: 35] | 21.58% | –
Ac-Thr-Ser-Asp-Ala-Glu-Asp-Asn-NH2 (Ac-TSDAEDN-NH2) [SEQ ID NO: 10] | 14.54% | –

Second part, the substance after the results:

Blocking rate (Mean, %) | inhibition at 100 µM | Substance
21.71% | – | Ac-Ser-Gln-Asp-Ala-Glu-Asp-Asn-Thr-Val-Ser-Phe-NH2 (Ac-SQDAEDNTVSF-NH2) [SEQ ID NO: 28]
16.56% | – | Ac-Thr-Gln-Asp-Ala-Glu-Asp-Pro-NH2 (Ac-TQDAEDP-NH2) [SEQ ID NO: 13]
– | 22.8% | Ac-QDAEDNTAS-NH2 [SEQ ID NO: 23, Ac-Gln-Asp-Ala-Glu-Asp-Asn-Thr-Ala-Ser-NH2]
16.39% | – | Ac-Gln-Asp-Ala-Glu-Asp-NH2 (Ac-QDAED-NH2) [SEQ ID NO: 02]
21.45% | – | Ac-Thr-Gln-Asp-Ala-Glu-Asp-Asn-Thr-Ala-Ser-Tyr-NH2 (Ac-TQDAEDNTASY-NH2) [SEQ ID NO: 32]
– | 30.6% | Ac-TQDAEDNT-NH2 [SEQ ID NO: 15, Ac-Thr-Gln-Asp-Ala-Glu-Asp-Asn-Thr-NH2]
20.22% | – | Ac-Thr-Ser-Asp-Ala-Glu-Asp-Asn-Thr-Val-Ser-Phe-Leu-Gln-NH2 (Ac-TSDAEDNTVSFLQ-NH2) [SEQ ID NO: 38]
22.45% | – | Ac-Thr-Gln-Asp-Pro-Glu-Asp-Asn-Thr-Val-Ser-Phe-NH2 (Ac-TQDPEDNTVSF-NH2) [SEQ ID NO: 30]
24.87% | – | Ac-Gln-Asp-Ala-Glu-Asp-Asn-Thr-Ala-NH2 (Ac-QDAEDNTA-NH2) [SEQ ID NO: 16]
17.84% | – | Ac-Gln-Asp-Pro-Glu-Asp-NH2 (Ac-QDPED-NH2) [SEQ ID NO: 01]
18.79% | – | Ac-Ser-Gln-Asp-Ala-Glu-Asp-Asn-Thr-Val-NH2 (Ac-SQDAEDNTV-NH2) [SEQ ID NO: 18]
16.02% | – | Ac-Thr-Gln-Asp-Pro-Glu-Asp-NH2 (Ac-TQDPED-NH2) [SEQ ID NO: 03]
15.63% | – | Ac-Thr-Gln-Asp-Ser-Glu-Asp-Asn-Thr-Val-NH2 (Ac-TQDSEDNTV-NH2) [SEQ ID NO: 21]
